Changes are numbered by the printed parent chain.
B1: Clone 3.11 (VHH)
VHH: QVQLVQSGAEVKKPGASVKVSCKASGYNFDAYHINWVRQAPGQGLEWMGSIKPNSGATKYAQKFQGRVTITRDTSISTAYMELSRLRSDDTAVYYCASLDRDTWYPHSYFGWFDSWGQGTLVTVSS
notes: Human single VH domain
B2: Clone 3.9 (VHH)
VHH: B1 VHH with L99M, T103Y, W104Y, Y105D, P106T, H107S, S108G
notes: Human single VH domain
B3: Clone 3.13 (VHH)
VHH: B1 VHH with F110A
notes: Human single VH domain
B4: Clone 1.8 (VHH)
VHH: QVQLVESGGGLVQPGGSLRLSCAASGFTFSSYGMYWVRQAPGKGLEWVAKIEQDGSEKYYVDSVKGRFTISRDNAKNSLFLQMNSLRAEDTAVYYCAKGEILPLYFDYWGQGTLVTVSS
notes: Human single VH domain
B5: Clone 1.9 (VHH)
VHH: B4 VHH with K50E, E52K, F80Y
notes: Human single VH domain
B6: VH 1.17.1 (clone 1.17 expressed from phagemid vector: with linker residues and His tag) (VHH)
VHH: EVQLVESGGGLVQPGGSLRLSCAASGFTFSSYSMYWVRQAPGKGLEWVAEIKPTGSVQYYVSDVKGRFTISRDNAKNSLYLQMNSLRAEDTAVYYCAKGEILPLYFDYWGQGTLVTVSS
notes: Human single VH domain
B7: Clone 1.14 (VHH)
VHH: B4 VHH with Q1E, P14R, G33R, K50S, K58E, N77K
notes: Human single VH domain
B8: Clone 1.22 (VHH)
VHH: B4 VHH with Q1E, Q13R, K58E, N77K, F80Y
notes: Human single VH domain
B9: Clone 1.13 (VHH)
VHH: B4 VHH with Q1E, K50S, F80Y
notes: Human single VH domain
B10: VH 1.18.1 (clone 1.18 expressed from phagemid vector: with linker residues and His tag) (VHH)
VHH: B6 VHH with P53Q, T54D, S62G, D63G
notes: Human single VH domain
B11: Clone 1.11 (VHH)
VHH: B4 VHH with Q1E, G33Q, K50S, E52K, K58E
notes: Human single VH domain
B12: Clone 1.12 (VHH)
VHH: B4 VHH with K58E, F80Y
notes: Human single VH domain
B13: VH 1.21.1 (clone 1.21 expressed from phagemid vector: with linker residues and His tag) (VHH)
VHH: B6 VHH with Q13L, P53Q, T54D, V57E, S62D, D63S
notes: Human single VH domain

target: T1, recombinant human IL-17A (human, UniProt Q16552 24-155); assay: competition ELISA, IL-17A binding to coated IL-17RA-Fc
T1 construct: Bought recombinant protein (Peprotech AF-200-17); also called Peprotech AF-200-17
T1 sequence (Q16552 24-155): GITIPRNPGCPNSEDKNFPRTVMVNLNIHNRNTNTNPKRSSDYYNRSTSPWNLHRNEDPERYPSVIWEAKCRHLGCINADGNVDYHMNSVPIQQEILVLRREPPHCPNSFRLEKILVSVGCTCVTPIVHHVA
Procedure: Following washing of excess coating antigen, as described above, the wells of the plate were incubated with 3% skimmed milk powder/PBS to block non-specific protein interactions. […] The mixture was then transferred to the assay plate and incubated for 1 hour at room temperature.
Where appropriate, curve fitting in PRISM was used to determine the EC₅₀ of inhibiting VH.

| Binder | IC50 [nM] |
| --- | --- |
| B1 | 8 |
| B2 | 43 |
| B3 | 2 |

target: T1, recombinant human IL-17A; assay: cell-based or functional assay

| Binder | Cell assay IC50 (nM), IL-17A-induced IL6 release from HT1080 [nM] |
| --- | --- |
| B1 | 17 |
| B2 | 182 |
| B3 | 5 |

target: T1, recombinant human IL-17A; assay: cell-based or functional assay; remark: another data set of the same source

| Binder | Cell assay IC50 (nM), IL-17A-induced IL6 release from HT1080 [nM] |
| --- | --- |
| B4 | 1.2 |
| B5 | 2.4 |
| B6 | 1.91 |
| B7 | 2.9 |
| B8 | 3.25 |
| B9 | 1.2 |
| B10 | 1.04 |
| B11 | 1.5 |
| B12 | 1.4 |
| B13 | 2.05 |

target: T1, recombinant human IL-17A; assay: SPR (BIAcore T200), IL-17A coupled to CM5 chip, single-cycle kinetics
Procedure: (§1) VH binding kinetics were then determined from the (blank subtracted) sensorgram traces using 1:1 binding models and BIAevaluation software.

| Binder | Kd [nM] | koff [s⁻¹] | kon [M⁻¹ s⁻¹] |
| --- | --- | --- | --- |
| B1 | 0.44 | 0.000237 | 538000 |
| B2 | 21 | 0.00201 | 96400 |
| B3 | 0.197 | 0.000201 | 1.02e+06 |

target: T1, recombinant human IL-17A; assay: as above; remark: another data set of the same source
Procedure: as §1

| Binder | Kd [nM] | koff [s⁻¹] | kon [M⁻¹ s⁻¹] |
| --- | --- | --- | --- |
| B4 | 0.616 | 0.000429 | 697000 |
| B5 | 0.529 | 0.000464 | 877000 |
| B6 | 0.5 | 0.000462 | 923000 |
| B7 | 0.913 | 0.000688 | 753000 |
| B8 | 0.223 | 0.000126 | 565000 |
| B9 | 0.84 | 0.000515 | 614000 |
| B10 | 0.366 | 0.000479 | 1.31e+06 |
| B11 | 0.845 | 0.000521 | 617000 |
| B12 | 0.724 | 0.00053 | 732000 |
| B13 | 0.259 | 0.000205 | 792000 |

Reference: patent US20200347127A1 (CRESCENDO BIOLOGICS, published 2020)
